Results from article PMC4844672 (Nature Communications, 2016).

How the values were obtained:
[1] = biological target: GbLFY-SAM (N-terminal SAM domain of Ginkgo biloba LEAFY, wild type) (Ginkgo biloba); test: SEC-MALS; SEC-MALLS on Superdex-200 10/300GL in buffer A, 20 °C, 0.5 ml/min; 50 µl at ~4.5 mg/ml injected; [RE+TE] is an equimolar mixture of the TE and RE mutants
[2] = biological target: the molecule itself; test: SEC; Superdex-200 10/300GL in buffer A, 4 °C, calibrated with protein standards; molecular mass estimated at different protein concentrations
AtLFY = biological target: T1, AtLFY (Arabidopsis thaliana, UniProt Q00958 1-420); test: EMSA; 500 nM; behaves like GbLFYΔ; EMSA: 20 mM Tris-HCl pH 7.5, 150 mM NaCl, 1% glycerol, 0.25 mM EDTA, 2 mM MgCl2, 0.01% Tween-20, 3 mM TCEP, 28 ng/ml fish sperm DNA, 10 nM probe, 25-500 nM prot
T1 sequence: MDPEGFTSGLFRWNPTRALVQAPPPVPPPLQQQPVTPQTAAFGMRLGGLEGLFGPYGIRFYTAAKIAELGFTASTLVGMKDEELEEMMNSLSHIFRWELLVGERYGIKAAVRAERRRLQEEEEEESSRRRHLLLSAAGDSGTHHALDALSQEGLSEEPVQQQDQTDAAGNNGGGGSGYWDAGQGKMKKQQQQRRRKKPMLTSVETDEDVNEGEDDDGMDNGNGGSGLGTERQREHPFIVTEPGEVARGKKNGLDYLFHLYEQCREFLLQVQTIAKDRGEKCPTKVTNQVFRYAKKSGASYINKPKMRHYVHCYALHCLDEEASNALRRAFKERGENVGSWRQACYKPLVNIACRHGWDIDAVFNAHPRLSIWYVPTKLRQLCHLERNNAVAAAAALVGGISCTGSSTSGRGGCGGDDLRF

Question: Which stoichiometry N [1] does the source give for “GbLFY-SAM (N-terminal SAM domain of Ginkgo biloba LEAFY, wild type) (domain or fragment)” here?
Answer: Its stoichiometry N is < 8 monomers.

B1: AtLFY-SAM (SAM domain of A. thaliana LEAFY) (domain or fragment, Arabidopsis thaliana, UniProt Q00958 38-151, looked up)
chain: QTAAFGMRLGGLEGLFGPYGIRFYTAAKIAELGFTASTLVGMKDEELEEMMNSLSHIFRWELLVGERYGIKAAVRAERRRLQEEEEEESSRRRHLLLSAAGDSGTHHALDALSQ
notes: LEAFY (LFY) of Arabidopsis thaliana, residues 38-151 of the A. thaliana LFY cDNA (plasmid pETH201, vector pETM-11); also called SAM domain of A. thaliana LFY; source: E. coli Rosetta2 (DE3), purified (Ni-Sepharose, TEV cleavage, Superdex-200); not shown: 6 x His, N-terminal, cleaved
Question: Does B1 bind [2]?
Answer: Result: binds

B2: AGI-II (dsDNA)
DNA 1: CGTTTAAATTTAATCCAATGGTTACAATTTTAATACTATCAAATGTCTATTGGATTTATACCCAATGTGTTAATGGGTTG
DNA 2: CAACCCATTAACACATTGGGTATAAATCCAATAGACATTTGATAGTATTAAAATTGTAACCATTGGATTAAATTTAAACG
Question: Does B2 bind (AtLFY)?
Answer: Result: binds
